Patent US20110053840A1 (MERCK SERONO S A, published 2011)

B1: HuPb28 (peptide)
peptide: Ac-MLIYYSSYL-NH2
notes: acetylated nonapeptide amide; also called HuPb28 peptide

biological target: T1, HLA-DR2b molecules purified from L cells co-transfected with HLA-DRA and HLA-DRB1*1501 (human); assay: competitive ELISA (DELFIA) on purified HLA-DR2b, displacement of biotinylated CLIP 97-120
T1 construct: also called purified DR2b molecules
Text: DR2b molecules were purified from L cells that had been co-transfected with HLA-DRA and HLA-DRB1*1501, by affinity chromatography using the HLA-DR-specific L243 antibody, as described in Weissert et al. (2001), MHC class II-regulated central nervous system autoaggression and T cell responses in peripheral lymphoid tissues are dissociated in myelin oligodendrocyte glycoprotein-induced experimental autoimmune encephalomyelitits, J. Immunol. […] The above publication is incorporated into the present application by reference. The binding assays were performed with a competitive ELISA based on a dissociation-enhanced lanthanide fluoroimmunoassay (Wallac, Turku, Finland). For the competitive ELISA, a 50 nM solution of DR2b molecules was incubated for 48 hours at 37° C. with 50 nM biotinylated CLIP 97-120 in the presence of 250 nM acetylated nonapeptide amide sublibrary or with various concentrations of competitor peptides ranging from 1 nM to 100 μM.
The affinity of each of these peptides for the HLA-DR2b molecule was measured using the ELISA.

Compared with Ac-WPLPLLEER-NH2 (acetylated nonapeptide amide) [HuPb10], Ac-WGLPEHLER-NH2 (acetylated nonapeptide amide) [HuPb11] is higher in IC50: 33900 nM for the first, greater than 100000 nM for the second. The first is the more potent here.

Going from Ac-PYEAQELHE-NH2 (acetylated nonapeptide amide) [HuPb14] to Ac-GPLPEHELL-NH2 (acetylated nonapeptide amide) [HuPb15], the IC50 falls from greater than 100000 nM to 46700 nM.

Going from Ac-KGESGFRDR-NH2 (acetylated nonapeptide amide) [HuPb17] to Ac-GSLPRHLFR-NH2 (acetylated nonapeptide amide) [HuPb18], the IC50 falls from greater than 100000 nM to 43800 nM. The second is the more potent here.

Going from Ac-GPPERLEFR-NH2 (acetylated nonapeptide amide) [HuPb19] to Ac-MIYWYSSWL-NH2 (acetylated nonapeptide amide) [HuPb20], the IC50 falls from greater than 100000 nM to 1 nM. The second is the more potent here.

Compared with Ac-MIYWYSSWI-NH2 (acetylated nonapeptide amide) [HuPb21], Ac-LIYWYSSWL-NH2 (acetylated nonapeptide amide) [HuPb22] is 2-fold higher in IC50: 1 nM for the first, 2 nM for the second. The first is the more potent here.

First: Ac-LILWYSSWL-NH2 (acetylated nonapeptide amide) [HuPb24]
Second: Ac-LILWYSSWP-NH2 (acetylated nonapeptide amide) [HuPb26]
The IC50 of the first is 2-fold higher: 2 nM for the first, 1 nM for the second. The second is the more potent here.

Ac-MIYWYSNWL-NH2 (acetylated nonapeptide amide) [HuPb30] and Ac-MIYWYNSWL-NH2 (acetylated nonapeptide amide) [HuPb31] cannot be ordered by IC50: less than 1 nM for the first, less than 1 nM for the second.

First: Ac-MIYWYSSWD-NH2 (acetylated nonapeptide amide) [HuPb33]
Second: Ac-LILYYYYYL-NH2 (acetylated nonapeptide amide) [HuPb23]
The IC50 of the first is 150-fold lower: 1 nM for the first, 154 nM for the second.

Ac-LLYWYSSWP-NH2 (acetylated nonapeptide amide) [HuPb27] and B1 cannot be ordered by IC50: less than 1 nM for the first, less than 1 nM for the second.

Compared with Ac-FILIYSNLF-NH2 (acetylated nonapeptide amide) [HuPb29], Ac-DIYWYSSWP-NH2 (acetylated nonapeptide amide) [HuPb32] is lower in IC50: 2 nM for the first, less than 1 nM for the second.

Ac-MIDWYSSWP-NH2 (acetylated nonapeptide amide) [HuPb34] was tested, and the IC50 was 1 nM.
